This is an account of results in CN110938146A (UNIV HUAZHONG AGRICULTURAL, dated 2020).

The target in the test is T1, TIM-3重组蛋白 (human, UniProt Q8TDQ0 22-200, limits assumed).
T1 construct: also called 重组TIM-3蛋白; 固定化TIM-3
T1 sequence (looked up): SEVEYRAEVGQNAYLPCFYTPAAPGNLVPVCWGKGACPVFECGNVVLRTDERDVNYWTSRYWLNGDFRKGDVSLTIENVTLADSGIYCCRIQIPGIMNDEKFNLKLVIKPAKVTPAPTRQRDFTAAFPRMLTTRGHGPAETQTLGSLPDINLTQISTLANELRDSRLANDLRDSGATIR
Kind of test: ELISA: TIM-3 coated at 5 ug/mL, biotinylated sdAb titrated 1:2 from 200 ug/mL, HRP-streptavidin, Prism fit. In general terms: ELISA stands for enzyme-linked immunosorbent assay.

B1: TIM-3-CX153 (VHH)
VHH: QSMEESGGRLVKPDETLTLTCTVSGFSLSSYSMIWVRQAPGKGLEWIGIIGTTGNTYYASWAKGRFTISKTSTTVDLKMTSLTSEDTATYFCARYYADGVFDLWGQGTLVTVSS
notes: Expressed in E. coli BL21 from pET28 and purified on a His nickel column; also called TIM-3-CX153-HisFlag; TIM-3-CX153单抗
In the case of B1, the equilibrium dissociation constant (Kd) (usually the concentration at which binding is half-saturated) came to 278 nM.
